± gives the uncertainty stated by the source.
Assay: self-splicing fitness, log relative to wild type (ln ratio); higher = more splicing; Tetrahymena group I intron in knt gene, E. coli kanamycin selection, DiMSum; sequences stand for … in CUCUCU…GGAGGGAAAAGUUAUCAGGCAUGCACCUGGUAGCUAGUCUUUAAACCAAUAGAUUGCAUCGGUUUAAAAGGCAAGACCGUCAAAUUGCGGGAAAGGGGUCAACAGCCGUUCAGUACCAAGUCUCAGGGGAAACUUUGAGAUGGCCUUGCAAAGGGUAUGGUAAUAAGCUGACGGACAUGGUCCUAACCACGCAGCCAAGUCCUAAGUCAACAGAUCUUCUGUUGAUAUGGAUGCAGUUCACAGACUAAAUGUCGGUCGGGGAAGAUGUAUUCUUCUCAUAAGAUAUAGUCGGACCUCUCCUUAAUGGGAGCUAGCGGAUGAAGUGAUGCAACACUGGAGCCGCUGGGAACUAAUUUGUAUGCGAAAGUAUAUUGAUUAGUUUUGGAGUACUCGUGGUCG
Method in brief: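 DiMSum derived fitness as the error-weighted combination of fold changes across replicates, kanamycin versus no kanamycin, normalised to wild type. E. coli BL21(DE3) held the library, which randomised all eight P1ex-region intron nucleotides within the knt kanamycin-resistance gene on pET-22b(+). Six replicate transformations grew overnight at 37°C or 30°C on LB agar with or without 25 μg/mL kanamycin, also containing 100 μg/mL carbenicillin, 50 μM IPTG and 0.2% rhamnose, and pooled colonies were amplicon-sequenced on an Illumina HiSeq 2500.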

Sequence	self-splicing fitness (ln) (30 °C)	self-splicing fitness (ln) (37 °C)
UAGUAGCAAUAUUACGUGGA	-2.56 ± 0.31	-1.29 ± 0.2
UAGUAGCAAUAUUACGUUAU	-3.5 ± 0.43	-3.13 ± 0.4
UAGUAGCAAUAUUACGUUCG	-0.331 ± 0.091	-0.159 ± 0.11
UAGUAGCAAUAUUACGUUGG	-3.52 ± 0.22	-2.69 ± 0.16
UAUAAGCAAUAUUACGAAAG	-1.17 ± 0.13	-2.44 ± 0.21
UAUAAGCAAUAUUACGAAAU	-3.45 ± 0.22	-3.24 ± 0.33
UAUAAGCAAUAUUACGAACG	-0.609 ± 0.12	0.622 ± 0.15
UAUAAGCAAUAUUACGAACU	-1.94 ± 0.28	0.235 ± 0.24
UAUAAGCAAUAUUACGAAGG	-2.23 ± 0.21	-1.19 ± 0.23
UAUAAGCAAUAUUACGAAUC	–	-1.77 ± 0.36
UAUAAGCAAUAUUACGACCA	-0.816 ± 0.092	0.038 ± 0.12
UAUAAGCAAUAUUACGAUCU	-1.22 ± 0.11	0.0539 ± 0.12
UAUAAGCAAUAUUACGAUGC	-3.29 ± 0.36	-2.63 ± 0.27
UAUAAGCAAUAUUACGAUUU	-1.43 ± 0.091	-0.65 ± 0.1
UAUAAGCAAUAUUACGCACC	-1.82 ± 0.3	-1.42 ± 0.3
UAUAAGCAAUAUUACGCAGG	-2.31 ± 0.13	-0.616 ± 0.11
UAUAAGCAAUAUUACGCAUU	-2.15 ± 0.21	-0.414 ± 0.14
UAUAAGCAAUAUUACGCCAU	-1.19 ± 0.23	-2.11 ± 0.28
UAUAAGCAAUAUUACGCCGA	-1.53 ± 0.14	0.235 ± 0.14

Sequence	self-splicing fitness (ln) (30 °C)	self-splicing fitness (ln) (37 °C)
UAUAAGCAAUAUUACGCUUG	-1.75 ± 0.15	-0.76 ± 0.14
UAUAAGCAAUAUUACGGCCU	-0.92 ± 0.16	-0.641 ± 0.23
UAUAAGCAAUAUUACGGGAG	-2.07 ± 0.11	-1.64 ± 0.12
UAUAAGCAAUAUUACGGGCA	-0.658 ± 0.11	0.213 ± 0.12
UAUAAGCAAUAUUACGGGGU	-2.93 ± 0.24	-2.66 ± 0.23
UAUAAGCAAUAUUACGGGUG	-0.65 ± 0.074	0.0941 ± 0.12
UAUAAGCAAUAUUACGUAGC	–	-2.05 ± 0.36
UAUAAGCAAUAUUACGUAGG	-3 ± 0.27	-0.609 ± 0.27
UAUAAGCAAUAUUACGUAGU	-3.65 ± 0.25	-2.07 ± 0.25
UAUAAGCAAUAUUACGUAUC	-1.88 ± 0.17	-2.03 ± 0.19
UAUAAGCAAUAUUACGUUAC	-3.45 ± 0.21	-2.46 ± 0.23
UAUAAGCAAUAUUACGUUCG	-0.846 ± 0.12	0.0904 ± 0.17
UAUAAGCAAUAUUACGUUUG	-1.84 ± 0.11	-1.61 ± 0.14
UAUCAGCAAUAUUACGAACA	-0.0668 ± 0.089	-0.206 ± 0.096
UAUCAGCAAUAUUACGACAC	-2.03 ± 0.2	0.634 ± 0.23
UAUCAGCAAUAUUACGACCG	-0.12 ± 0.081	0.738 ± 0.11
UAUCAGCAAUAUUACGAGCA	-0.827 ± 0.084	-0.124 ± 0.11
UAUCAGCAAUAUUACGAUCA	-0.115 ± 0.11	0.19 ± 0.14
UAUCAGCAAUAUUACGAUCC	-1.32 ± 0.11	0.203 ± 0.13

From the supplement of paper PMC7877785
